# Experimental data taken from patent US20230135471A1, “UBIQUITIN VARIANTS WITH IMPROVED AFFINITY FOR 53BP1” (Integrated DNA Technologies, Inc., priority 2021, published 2023).
# Target: 53BP1 fragment (a.a. 1221-1718) fused to an adenylate cyclase fragment (two-hybrid) (UniProt Q12888)
# Assay: cell-based or functional assay
Substance,Experiment 1 Average Enrichment,Experiment 1 Rep 1 Enrichment,Experiment 1 Rep 2 Enrichment,Experiment 2 Average Enrichment,Experiment 2 Rep 1 Enrichment,Experiment 2 Rep 2 Enrichment
i53 + N25T two-hybrid fusion (designed binder),0.12 log2,-0.19 log2,0.44 log2,0.29 log2,0.33 log2,0.24 log2
i53 + N60E two-hybrid fusion (designed binder),0.66 log2,0.9 log2,0.43 log2,0.25 log2,0.13 log2,0.38 log2
i53 + N60Q two-hybrid fusion (designed binder),0.08 log2,0.13 log2,0.03 log2,0.29 log2,0.01 log2,0.58 log2
i53 + P19K two-hybrid fusion (designed binder),1 log2,2.12 log2,-0.12 log2,-0.68 log2,-0.26 log2,-1.1 log2
i53 + P38A two-hybrid fusion (designed binder),0.06 log2,-0.41 log2,0.53 log2,0 log2,-0.16 log2,0.15 log2
i53 + P38C two-hybrid fusion (designed binder),1.52 log2,1.21 log2,1.83 log2,0.52 log2,0.46 log2,0.57 log2
i53 + P38F two-hybrid fusion (designed binder),0.67 log2,0.91 log2,0.43 log2,0.81 log2,0.48 log2,1.13 log2
i53 + P38H two-hybrid fusion (designed binder),0.26 log2,0.87 log2,-0.35 log2,0.58 log2,0.33 log2,0.83 log2
i53 + P38I two-hybrid fusion (designed binder),0.66 log2,0.4 log2,0.92 log2,0.64 log2,1.62 log2,-0.34 log2
i53 + P38K two-hybrid fusion (designed binder),-1.02 log2,-2.14 log2,0.1 log2,0.25 log2,-0.61 log2,1.11 log2
i53 + P38M two-hybrid fusion (designed binder),-0.31 log2,-2.07 log2,1.45 log2,1.25 log2,1.37 log2,1.13 log2
i53 + P38N two-hybrid fusion (designed binder),1.02 log2,2.28 log2,-0.25 log2,-1.49 log2,-1.91 log2,-1.07 log2
i53 + P38Q two-hybrid fusion (designed binder),-0.25 log2,0.85 log2,-1.35 log2,0.5 log2,1.18 log2,-0.17 log2
i53 + P38S two-hybrid fusion (designed binder),0.22 log2,0.19 log2,0.25 log2,0.27 log2,0.56 log2,-0.02 log2
i53 + P38T two-hybrid fusion (designed binder),0.11 log2,0.95 log2,-0.72 log2,0.92 log2,1.27 log2,0.58 log2
i53 + P38V two-hybrid fusion (designed binder),1.21 log2,1.16 log2,1.26 log2,0.05 log2,0.38 log2,-0.29 log2
i53 + P38W two-hybrid fusion (designed binder),0.6 log2,0.61 log2,0.6 log2,-0.59 log2,-0.87 log2,-0.32 log2
i53 + P38Y two-hybrid fusion (designed binder),0.74 log2,1.79 log2,-0.3 log2,0.31 log2,0.66 log2,-0.03 log2

Substance,Experiment 1 Average Enrichment,Experiment 1 Rep 1 Enrichment,Experiment 1 Rep 2 Enrichment,Experiment 2 Average Enrichment,Experiment 2 Rep 1 Enrichment,Experiment 2 Rep 2 Enrichment
i53 + P69R two-hybrid fusion (designed binder),-1.93 log2,-2.27 log2,-1.59 log2,0.75 log2,0.2 log2,1.29 log2
i53 + Q31H two-hybrid fusion (designed binder),0.19 log2,0.66 log2,-0.29 log2,0.11 log2,0.13 log2,0.09 log2
i53 + Q31L two-hybrid fusion (designed binder),0.41 log2,0.71 log2,0.11 log2,-0.15 log2,-0.23 log2,-0.06 log2
i53 + Q31M two-hybrid fusion (designed binder),-1.74 log2,-0.84 log2,-2.63 log2,0.07 log2,-0.05 log2,0.18 log2
i53 + Q31R two-hybrid fusion (designed binder),0.15 log2,0.66 log2,-0.37 log2,-0.22 log2,0.14 log2,-0.58 log2
i53 + Q31Y two-hybrid fusion (designed binder),0.32 log2,0.31 log2,0.34 log2,-0.05 log2,-0.26 log2,0.16 log2
i53 + Q40D two-hybrid fusion (designed binder),-0.31 log2,0.13 log2,-0.75 log2,0.8 log2,1.27 log2,0.33 log2
i53 + Q40E two-hybrid fusion (designed binder),1.37 log2,1.67 log2,1.08 log2,1.18 log2,1.84 log2,0.52 log2
i53 + Q41C two-hybrid fusion (designed binder),0.18 log2,0.22 log2,0.13 log2,-0.03 log2,-0.05 log2,0 log2
i53 + Q41I two-hybrid fusion (designed binder),0.3 log2,0.3 log2,0.3 log2,-0.08 log2,0.08 log2,-0.25 log2
i53 + Q41V two-hybrid fusion (designed binder),-0.14 log2,-0.37 log2,0.1 log2,0.05 log2,0.13 log2,-0.03 log2
i53 + Q41Y two-hybrid fusion (designed binder),0.68 log2,0.73 log2,0.64 log2,0.47 log2,0.4 log2,0.53 log2
i53 + R42C two-hybrid fusion (designed binder),0.42 log2,0.37 log2,0.47 log2,0.28 log2,0.54 log2,0.01 log2
i53 + R42F two-hybrid fusion (designed binder),1.88 log2,1.99 log2,1.77 log2,1.26 log2,1.4 log2,1.13 log2
i53 + R42H two-hybrid fusion (designed binder),2.04 log2,2.18 log2,1.89 log2,1.03 log2,0.89 log2,1.16 log2
i53 + R42N two-hybrid fusion (designed binder),1.12 log2,1.18 log2,1.05 log2,1.01 log2,1.34 log2,0.68 log2
i53 + R42S two-hybrid fusion (designed binder),-0.08 log2,-0.13 log2,-0.02 log2,0.23 log2,0.05 log2,0.41 log2
i53 + R42Y two-hybrid fusion (designed binder),1.57 log2,1.44 log2,1.69 log2,1.19 log2,1.13 log2,1.26 log2
